Test results reported in the DeepSol protein solubility set.

Test: soluble on expression in E. coli; label from the status in PepcDB or PDB records

Sequence | soluble on expression in E. coli
MGSDKIHHHHHHMNKELFCIENLRVAYPQRSGEELQWAIDDVSFTLQPGERMGLVGESGCGKSTLGRAAMRLLPPSSLVEGRVTFQGKSVFDLTPNELRKFRGEAVALIFQDPMTRLDPLMTIGNHCIETLQAHAPELSAKEAKEKALATLEKVKIPASRWGQYPHEFSGGMRQRVAIALALLLNPKLIVADEPTTSLDVTVSAQILQELTRLCSEENMALLLISHDLAMVAEYCSRIGVMYNGKMVEMGTTESVFKNPQHEYTRSLLKAALHIQAVDEGSSEASQSPIPSPQSPILRITELKQYYTIEPNFVERLFKAESQTIKAVDGINLELYPGEILGLVGESGCGKSTLSRTILQLIRPTSGKVEFLGQDLTKLSRQEIRACRRQIQMVFQDPHACLNPAMTVGESIADPLLIHHLADAAKAKEQVLWMLQKVGLTPPEVYYQRYPSDLSGGQQQRVAIARALITRPKMLICDEPVSMLDASVQSQVLDLMLQLKEEFELTYLFITHDLWLARFLCDRIAVMHGGKIVELGETKQIFAHPQHPYTQTLLAAAPLLARA | not soluble
MSALIVSDIDGTLIDSRERIPSAVKESLAAAQRAGVSFVVATGRPARWIHPIIDQLYTPPTLCVCANGAVIYDPACDSITHRRELAPDAMRTVVRVAREALSDLGGCGVGVERAGVSAHDMPGELFMVTPDFVHSWESIEHSTVELDRVLARSAVKLLLRNDALTSEQMHRLVAPVVPADVAHVTYSMPDGLLEVMQPGVNKSSALDVVAQDLGVDPADAIAFGDMLNDLEMIRWAGTGVAMGNACDQLQRAADVVAPTNDEAGIAVVLREWLQG | not soluble
GPGSMSDVKSKEAGANPAASKSGSGEDVAETKLAVPRSLDTGSKKHPLNSSWTLWYDSLSTYDSERWELSLVEVITVRTVEEFFTMLHYCKPPHVLRVSAQYHFFREGVKPMWEDPSNKAGGKLWISLDDKPVGDVGGRKWENANTGGAAGGEKDNASAATNNSNSNQNAKAKKEEQETEKKPELDTMWENLLMAMVGEYLDPEPDGDHIMGLVLSRRKYHNRIALWLRDASASEAVARIEKKLVKEAGLPPAMKFIFTPHSTGK | soluble
TDQFGMIGLLTFIRAAETDPGMVHLALGSDLTTLGLNLNSPENLYPKFASPWASSPCRPQDIDFHVPSEYLTNIHIRDKLAAIKLGRYGEDLLFYLYYMNGGDVLQLLAAVELFNRDWRYHKEERVWITRAPGMEPTMKTNTYERGTYYFFDCLNWRKVAKEFHLEYDKLEERPHLPSTFNYNPAQQAF | soluble
SKTENEEDVKPPESCHAMQLLFKSLEASERAKVEEELKKTKENEFTQRNEHHALRDITHGKVNNYSFGTRQARKLFPHYHPPTWLGNLYLPLRGMPHTGPGCYAAATDWNGLAYNLSKVPTSTKGYAIGARTAVRFKPISKDVTPYPGMYQKVDTLSEKHKKSFAPFNILMPRFRSAAKGDSYPGPGTYNPEMKSVPKVTWPMKFGSPDWSQVPCLEKRTLKAELSADKDFRKHRSRVAYFSLYYQ | soluble
MGSDKIHHHHHHMEIQNLKFEDRDEFKRKSIAAKVISVLQADIDISPMVIDGSWGTGKTEFCHKLINLMHVSDTHHLIYVDAFKADHADEPLMTVLAEVIKVLPDDDSKQSFMKKALPAVRYGLKTIAKAGVSHLLRQDIADVADDFDKQIQGAADKAIDATVESVLKDHVKADKNLKALQVALADIAAIKPIVLFIDELDRCRPNFAVDMLEIIKHTFDVDGVKFVLITNTQQLKASINHCYGLSVDAQRYLDKFVKFTIALPETVDTNAHRESIAAIEHYKNLVRSSHVLVDMKLYECGSIRTIEQIIIANRLSLREVETVVRHIEIYVTLAQSNNLQSNTIFGYKVLTILAIAIYSIQPEVALSILQKKLDAKDIGNCLGISSLSNNIQGRPDEQELICYMLGYTALHNKEHFTPTEDVDVWKQESAQYFRGAHWRTDDFASICAEAIQTLTMC | not soluble
MSLAVLDSGGGSALLKMGRQCEVGSQAYDSSTVSSNLQKAETNGPVGLAGTAEQEQQYDVHGNVISAAVYQKFHVYGPEDMVFDGDAGGLTIPGAGAFWGTLFTSDLQRLYKDTVSFQYNALGTYLNINFFDSSGGFLGHIQAGAVSAVVGVGGGSGSWHNWEVAEGHHHHHH | soluble
MGSSHHHHHHSSGLVIRGSHMRIALMQHTARPLDPQHNLDLIDDAAARASEQGAQLLLTPELFGFGYVPSQICAQVSAEQVDAARSRLRGIARDRGIALVWSLPGPEGPEQRGITAELADEHGEVLASYQKVQLYGPEEKAAFVPGEQPPPVLSWGGRQLSLLVCYDVEFPEMVRAAAARGAQLVLVPTALAGDETSVPGILLPARAVENGITLAYANHCGPEGGLVFDGGSVVVGPAGQPLGELGVEPGLLVVDLPDQSQDAGSDSADYLQDRRAELHRNWL | soluble
